# Data reported in PMC11892650 (Proceedings of the National Academy of Sciences of the …, 2025).
# Numbering of substitutions follows the chain as printed. In names and notes the source's numbering stands. Several values for one entry are separate records, joined by “and”; a condition that tells them apart may be missing. Identical values can stand only once.
# B1: JIP1_(1–266) (domain or fragment, UniProt Q9UQF2 1-266, looked up)
# chain: MAERESGGLGGGAASPPAASPFLGLHIASPPNFRLTHDISLEEFEDEDLSEITDECGISLQCKDTLSLRPPRAGLLSAGGGGAGSRLQAEMLQMDLIDATGDTPGAEDDEEDDDEERAARRPGAGPPKAESGQEPASRGQGQSQGQSQGPGSGDTYRPKRPTTLNLFPQVPRSQDTLNNNSLGKKHSWQDRVSRSSSPLKTGEQTPPHEHICLSDELPPQSGPAPTTDRGTSTDSPCRRSTATQMAPPGGPPAAPPGGRGHSHRDR
# B2: IL mutant of JIP1_(116–266) (I211A, L213A) (domain or fragment, UniProt Q9UQF2 116-266, looked up)
# chain: ERAARRPGAGPPKAESGQEPASRGQGQSQGQSQGPGSGDTYRPKRPTTLNLFPQVPRSQDTLNNNSLGKKHSWQDRVSRSSSPLKTGEQTPPHEHACASDELPPQSGPAPTTDRGTSTDSPCRRSTATQMAPPGGPPAAPPGGRGHSHRDR
# B3: JIP1_(116–266), the shortest construct comprising the D-motif (domain or fragment, UniProt Q9UQF2 116-266, looked up)
# chain: B2 chain with A96I, A98L
# Assays:
# [1] = biological target: RPLL mutant of JIP1_(116–266) (R160E, P161A, L164A, L166A) (UniProt Q9UQF2); test: NMR 15N CPMG relaxation dispersion
# [2] = biological target: c-Jun N-terminal kinase 1 (JNK1), inactive, unphosphorylated form (UniProt P45983); test: native MS
# Chain of c-Jun N-terminal kinase 1 (JNK1), inactive, unphosphorylated form (UniProt P45983) (P45983 5-364): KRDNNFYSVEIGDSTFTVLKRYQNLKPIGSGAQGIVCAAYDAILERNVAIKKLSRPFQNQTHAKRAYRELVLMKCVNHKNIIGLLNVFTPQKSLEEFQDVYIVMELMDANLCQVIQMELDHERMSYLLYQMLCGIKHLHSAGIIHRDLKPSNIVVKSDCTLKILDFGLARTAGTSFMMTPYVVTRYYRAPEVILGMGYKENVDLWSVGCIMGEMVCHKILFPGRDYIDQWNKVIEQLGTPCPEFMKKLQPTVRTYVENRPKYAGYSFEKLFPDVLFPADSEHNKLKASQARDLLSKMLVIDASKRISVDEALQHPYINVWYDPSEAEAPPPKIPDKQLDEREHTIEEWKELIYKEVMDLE
# [3] = biological target: T1, c-Jun N-terminal kinase 1 (JNK1), inactive, unphosphorylated form (UniProt P45983 5-364); test: native MS
# T1 sequence (P45983 5-364): as above
# [4] = biological target: T1, c-Jun N-terminal kinase 1 (JNK1), …; test: ITC
Molecule,stoichiometry N [3],Kd [4] [µM],dH [4] [kcal/mol],further results
"c-Jun N-terminal kinase 1 (JNK1), inactive, unphosphorylated form (from UniProt P45983 5-364) (enzyme)",–,–,–,Kd [1]: 2200 µM; bound-state population pB [1]: 1.6%; exchange rate constant kex [1]: 1100 s⁻¹; koff [1]: 1080 s⁻¹; kon [1]: 480000 M⁻¹ s⁻¹
JIP1_(1–145) (from UniProt Q9UQF2 1-145) (domain or fragment),–,–,–,stoichiometry N [2]: 1
B1,1 and 2 JNK1 per JIP1,–,–,–
RPKRPTTLNLF [peptide corresponding to the D-motif of JIP1 (157RPKRPTTLNLF167)],–,0.217,–,–
B2,1,0.082,-10.7,–
B3,1,0.081,-11.6,ΔΔH (binding enthalpy against the D-motif peptide) [4]: 4 kcal/mol
